Assay results from patent US20190185898A1.

Target: core-fucosylated RNase B (21) (bovine) (UniProt P61823)
Test: ELISA, glycoprotein coated, AAL-biotin in serial dilution

Sequence of core-fucosylated RNase B (21) (bovine) (P61823 27-150): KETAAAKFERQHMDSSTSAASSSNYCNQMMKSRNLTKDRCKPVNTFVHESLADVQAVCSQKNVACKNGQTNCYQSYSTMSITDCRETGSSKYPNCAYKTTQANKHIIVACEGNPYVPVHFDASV

B1: Aleuria aurantia lectin (AAL) (protein, UniProt P18891 2-313, looked up)
chain: PTEFLYTSKIAAISWAATGGRQQRVYFQDLNGKIREAQRGGDNPWTGGSSQNVIGEAKLFSPLAAVTWKSAQGIQIRVYCVNKDNILSEFVYDGSKWITGQLGSVGVKVGSNSKLAALQWGGSESAPPNIRVYYQKSNGSGSSIHEYVWSGKWTAGASFGSTVPGTGIGATAIGPGRLRIYYQATDNKIREHCWDSNSWYVGGFSASASAGVSIAAISWGSTPNIRVYWQKGREELYEAAYGGSWNTPGQIKDASRPTPSLPDTFIAANSSGNIDISVFFQASGVSLQQWQWISGKGWSIGAVVPTGTPAGW
modifications: biotin label (AAL-biotin), site not stated
  EC50: 275 µM
